B1: E5F (designed binder)
chain: SMEEFVEKAAKEYEKKKKEAIEKHLEKLKAKDKEAAERFLKELEEAAKEYAKDEAKTMSEEEAKRRAKKYKEKVLLSELSEEEQKEIKEAEEKLVRTILKYVEEAAK
B2: E83K (designed binder)
chain: SMEEEVEKAAKEYEKKKKEAIEKHLEKLKAKDKEAAERFLKELEEAAKEYAKDEAKTMSEEEAKRRAKKYKEKVLLSELSEEKQKEIKEAEEKLVRTILKYVEEAAK
B3: K29L (designed binder)
chain: SMEEEVEKAAKEYEKKKKEAIEKHLEKLLAKDKEAAERFLKELEEAAKEYAKDEAKTMSEEEAKRRAKKYKEKVLLSELSEEEQKEIKEAEEKLVRTILKYVEEAAK
B4: A90D (designed binder)
chain: SMEEEVEKAAKEYEKKKKEAIEKHLEKLKAKDKEAAERFLKELEEAAKEYAKDEAKTMSEEEAKRRAKKYKEKVLLSELSEEEQKEIKEDEEKLVRTILKYVEEAAK
B5: A90K (designed binder)
chain: SMEEEVEKAAKEYEKKKKEAIEKHLEKLKAKDKEAAERFLKELEEAAKEYAKDEAKTMSEEEAKRRAKKYKEKVLLSELSEEEQKEIKEKEEKLVRTILKYVEEAAK
B6: E26R (designed binder)
chain: SMEEEVEKAAKEYEKKKKEAIEKHLRKLKAKDKEAAERFLKELEEAAKEYAKDEAKTMSEEEAKRRAKKYKEKVLLSELSEEEQKEIKEAEEKLVRTILKYVEEAAK
B7: M58W (designed binder)
chain: SMEEEVEKAAKEYEKKKKEAIEKHLEKLKAKDKEAAERFLKELEEAAKEYAKDEAKTWSEEEAKRRAKKYKEKVLLSELSEEEQKEIKEAEEKLVRTILKYVEEAAK
B8: A90F (designed binder)
chain: SMEEEVEKAAKEYEKKKKEAIEKHLEKLKAKDKEAAERFLKELEEAAKEYAKDEAKTMSEEEAKRRAKKYKEKVLLSELSEEEQKEIKEFEEKLVRTILKYVEEAAK
B9: E42V (designed binder)
chain: SMEEEVEKAAKEYEKKKKEAIEKHLEKLKAKDKEAAERFLKVLEEAAKEYAKDEAKTMSEEEAKRRAKKYKEKVLLSELSEEEQKEIKEAEEKLVRTILKYVEEAAK
B10: V102D (designed binder)
chain: SMEEEVEKAAKEYEKKKKEAIEKHLEKLKAKDKEAAERFLKELEEAAKEYAKDEAKTMSEEEAKRRAKKYKEKVLLSELSEEEQKEIKEAEEKLVRTILKYDEEAAK
B11: K71L (designed binder)
chain: SMEEEVEKAAKEYEKKKKEAIEKHLEKLKAKDKEAAERFLKELEEAAKEYAKDEAKTMSEEEAKRRAKKYLEKVLLSELSEEEQKEIKEAEEKLVRTILKYVEEAAK
B12: L28S (designed binder)
chain: SMEEEVEKAAKEYEKKKKEAIEKHLEKSKAKDKEAAERFLKELEEAAKEYAKDEAKTMSEEEAKRRAKKYKEKVLLSELSEEEQKEIKEAEEKLVRTILKYVEEAAK
B13: K88I (designed binder)
chain: SMEEEVEKAAKEYEKKKKEAIEKHLEKLKAKDKEAAERFLKELEEAAKEYAKDEAKTMSEEEAKRRAKKYKEKVLLSELSEEEQKEIIEAEEKLVRTILKYVEEAAK
B14: S80N (designed binder)
chain: SMEEEVEKAAKEYEKKKKEAIEKHLEKLKAKDKEAAERFLKELEEAAKEYAKDEAKTMSEEEAKRRAKKYKEKVLLSELNEEEQKEIKEAEEKLVRTILKYVEEAAK
B15: A36M (designed binder)
chain: SMEEEVEKAAKEYEKKKKEAIEKHLEKLKAKDKEAMERFLKELEEAAKEYAKDEAKTMSEEEAKRRAKKYKEKVLLSELSEEEQKEIKEAEEKLVRTILKYVEEAAK
B16: E78P (designed binder)
chain: SMEEEVEKAAKEYEKKKKEAIEKHLEKLKAKDKEAAERFLKELEEAAKEYAKDEAKTMSEEEAKRRAKKYKEKVLLSPLSEEEQKEIKEAEEKLVRTILKYVEEAAK
B17: K69H (designed binder)
chain: SMEEEVEKAAKEYEKKKKEAIEKHLEKLKAKDKEAAERFLKELEEAAKEYAKDEAKTMSEEEAKRRAKHYKEKVLLSELSEEEQKEIKEAEEKLVRTILKYVEEAAK
B18: K31E (designed binder)
chain: SMEEEVEKAAKEYEKKKKEAIEKHLEKLKAEDKEAAERFLKELEEAAKEYAKDEAKTMSEEEAKRRAKKYKEKVLLSELSEEEQKEIKEAEEKLVRTILKYVEEAAK
B19: E54D (designed binder)
chain: SMEEEVEKAAKEYEKKKKEAIEKHLEKLKAKDKEAAERFLKELEEAAKEYAKDDAKTMSEEEAKRRAKKYKEKVLLSELSEEEQKEIKEAEEKLVRTILKYVEEAAK
B20: E89K (designed binder)
chain: SMEEEVEKAAKEYEKKKKEAIEKHLEKLKAKDKEAAERFLKELEEAAKEYAKDEAKTMSEEEAKRRAKKYKEKVLLSELSEEEQKEIKKAEEKLVRTILKYVEEAAK
B21: A9E (designed binder)
chain: SMEEEVEKEAKEYEKKKKEAIEKHLEKLKAKDKEAAERFLKELEEAAKEYAKDEAKTMSEEEAKRRAKKYKEKVLLSELSEEEQKEIKEAEEKLVRTILKYVEEAAK
B22: E45T (designed binder)
chain: SMEEEVEKAAKEYEKKKKEAIEKHLEKLKAKDKEAAERFLKELETAAKEYAKDEAKTMSEEEAKRRAKKYKEKVLLSELSEEEQKEIKEAEEKLVRTILKYVEEAAK
B23: A90W (designed binder)
chain: SMEEEVEKAAKEYEKKKKEAIEKHLEKLKAKDKEAAERFLKELEEAAKEYAKDEAKTMSEEEAKRRAKKYKEKVLLSELSEEEQKEIKEWEEKLVRTILKYVEEAAK
B24: L99K (designed binder)
chain: SMEEEVEKAAKEYEKKKKEAIEKHLEKLKAKDKEAAERFLKELEEAAKEYAKDEAKTMSEEEAKRRAKKYKEKVLLSELSEEEQKEIKEAEEKLVRTIKKYVEEAAK
B25: K11V (designed binder)
chain: SMEEEVEKAAVEYEKKKKEAIEKHLEKLKAKDKEAAERFLKELEEAAKEYAKDEAKTMSEEEAKRRAKKYKEKVLLSELSEEEQKEIKEAEEKLVRTILKYVEEAAK
B26: Y50T (designed binder)
chain: SMEEEVEKAAKEYEKKKKEAIEKHLEKLKAKDKEAAERFLKELEEAAKETAKDEAKTMSEEEAKRRAKKYKEKVLLSELSEEEQKEIKEAEEKLVRTILKYVEEAAK
B27: K8H (designed binder)
chain: SMEEEVEHAAKEYEKKKKEAIEKHLEKLKAKDKEAAERFLKELEEAAKEYAKDEAKTMSEEEAKRRAKKYKEKVLLSELSEEEQKEIKEAEEKLVRTILKYVEEAAK
B28: L25Y (designed binder)
chain: SMEEEVEKAAKEYEKKKKEAIEKHYEKLKAKDKEAAERFLKELEEAAKEYAKDEAKTMSEEEAKRRAKKYKEKVLLSELSEEEQKEIKEAEEKLVRTILKYVEEAAK
B29: K27Q (designed binder)
chain: SMEEEVEKAAKEYEKKKKEAIEKHLEQLKAKDKEAAERFLKELEEAAKEYAKDEAKTMSEEEAKRRAKKYKEKVLLSELSEEEQKEIKEAEEKLVRTILKYVEEAAK
B30: E14N (designed binder)
chain: SMEEEVEKAAKEYNKKKKEAIEKHLEKLKAKDKEAAERFLKELEEAAKEYAKDEAKTMSEEEAKRRAKKYKEKVLLSELSEEEQKEIKEAEEKLVRTILKYVEEAAK
B31: K8T (designed binder)
chain: SMEEEVETAAKEYEKKKKEAIEKHLEKLKAKDKEAAERFLKELEEAAKEYAKDEAKTMSEEEAKRRAKKYKEKVLLSELSEEEQKEIKEAEEKLVRTILKYVEEAAK
B32: K69M (designed binder)
chain: SMEEEVEKAAKEYEKKKKEAIEKHLEKLKAKDKEAAERFLKELEEAAKEYAKDEAKTMSEEEAKRRAKMYKEKVLLSELSEEEQKEIKEAEEKLVRTILKYVEEAAK
B33: K27R (designed binder)
chain: SMEEEVEKAAKEYEKKKKEAIEKHLERLKAKDKEAAERFLKELEEAAKEYAKDEAKTMSEEEAKRRAKKYKEKVLLSELSEEEQKEIKEAEEKLVRTILKYVEEAAK
B34: K8Y (designed binder)
chain: SMEEEVEYAAKEYEKKKKEAIEKHLEKLKAKDKEAAERFLKELEEAAKEYAKDEAKTMSEEEAKRRAKKYKEKVLLSELSEEEQKEIKEAEEKLVRTILKYVEEAAK
B35: E34K (designed binder)
chain: SMEEEVEKAAKEYEKKKKEAIEKHLEKLKAKDKKAAERFLKELEEAAKEYAKDEAKTMSEEEAKRRAKKYKEKVLLSELSEEEQKEIKEAEEKLVRTILKYVEEAAK

Target: T1, TNFR1 (Homo sapiens, UniProt P19438)
T1 chain: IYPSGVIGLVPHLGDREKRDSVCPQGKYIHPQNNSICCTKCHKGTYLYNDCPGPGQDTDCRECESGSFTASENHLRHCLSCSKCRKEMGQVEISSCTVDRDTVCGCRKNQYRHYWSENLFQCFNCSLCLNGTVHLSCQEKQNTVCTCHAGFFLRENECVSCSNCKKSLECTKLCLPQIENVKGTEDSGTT
Assay: yeast display SC50

Row | Binder | apparent Kd (screen)
1 | B1 | 1.05 nM
2 | B2 | 0.593 nM
3 | B3 | 0.79 nM
4 | B4 | 0.446 nM
5 | B5 | 0.956 nM
6 | B6 | 0.593 nM
7 | B7 | 18.3 nM
8 | B8 | 0.49 nM
9 | B9 | 1.16 nM
10 | B10 | 0.539 nM
11 | B11 | 0.653 nM
12 | B12 | 0.49 nM
13 | B13 | 0.446 nM
14 | B14 | 2.73 nM
15 | B15 | 0.446 nM
16 | B16 | 2.73 nM
17 | B17 | 0.49 nM
18 | B18 | 1.05 nM

Row | Binder | apparent Kd (screen)
19 | B19 | 20.2 nM
20 | B20 | 2.73 nM
21 | B21 | 0.446 nM
22 | B22 | 2.73 nM
23 | B23 | 0.49 nM
24 | B24 | 7.78 nM
25 | B25 | 0.593 nM
26 | B26 | 1.16 nM
27 | B27 | 0.956 nM
28 | B28 | 0.446 nM
29 | B29 | 0.593 nM
30 | B30 | 5.31 nM
31 | B31 | 1.16 nM
32 | B32 | 0.49 nM
33 | B33 | 0.869 nM
34 | B34 | 0.956 nM
35 | B35 | 0.539 nM
